T1: MegaRAP1 d3 (human, UniProt P30533 235-353)
T1 construct: range 201-319 (mature RAP numbering); d3 of the variant selected on LRP2 CR89; also called RAPv2A d3; RAP v2A; not shown: N-terminal hexahistidine and S-peptide tags of pET30(+)a
T1 sequence (looked up): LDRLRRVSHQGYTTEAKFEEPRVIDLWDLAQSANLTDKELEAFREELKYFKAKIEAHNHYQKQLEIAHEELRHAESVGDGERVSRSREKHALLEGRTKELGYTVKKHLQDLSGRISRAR


Tests used:
GFRα-1 [1] = target: T2, GFRα-1; test: solid phase assay, RAP-GDNF concentration varied, OD 450 nm
T2 construct: Bought reagent; construct not described; also called soluble GFRα-1

GFRα-1 [2] = target: T2, GFRα-1; test: solid-phase assay, coated RAP-GDNF, serial dilutions of GFRα-1 (FIG. 12)
Experimental: Solid-phase binding assays—Microtiter plates were coated with GDNF or RAP-GDNF in 50 mM sodium carbonate, pH 9.6. The plates were then blocked for 1 hour at room temperature with blocking buffer (Promega) and incubated with serial dilutions of GFRα-1 (0-10 nM) in the presence or the absence of 1 μM RET (2 hours, ambient temperature). Complexes were identified by probing with an anti-GDNF monoclonal antibody (B8, Santa Cruz Biotechriology) and then with anti-mouse […] (Bio-Rad). After adding TMB solution (Bio-Rad), the color development was stopped with HCl and the OD 450 nm was measured using a plate reader. Between steps, the plates were washed three times with DPBS containing 0.1% Tween 20. This method provides a method for quantitating the affinity of RAP-GDNF for GFRα.

MegaRAP1 d3 = target: T1, MegaRAP1 d3; test: solid-phase assay, coated CR protein
Experimental: Wells were washed with TBSTC and bound ligands detected with polyclonal anti-RAP (BP41/42, 1:1,000, BioMarin). Excess primary antibody was removed and wells washed before incubation with the secondary antibody, HRP-conjugated goat anti rabbit IgG (Bio-Rad). After washing, TMB substrate solutions (Bio-Rad) were added to detect HRP. Color development was stopped with 1N HCl. Absorption at 450 nm was measured with a microplate spectrophotometer (Molecular Devices). Data were plotted and Kd values derived by non-linear regression with the assumption of single-site binding (GraphPad Prism).
One premise of this work was that amino acids at A, C, A′ and C′ within the calcium-binding loops of a CR pair were key determinants of binding affinity for RAP and would be similarly important for binding of RAP variants. To test this idea, mutant LRP2 CR89 were prepared in which the native, non-canonical residues at these positions were sequentially substituted with the non-native, canonical residues. As defined above, the A, C, A′, C′ string for LRP2 CR89 is YVWR. Mutants included LRP2 CR89Y1042W (WVWR), LRP2 CR89V1047D (YDWR), LRP2 CR89R1088D (YVWD), LRP2 CR89V1047D R1088D (YDWD), LRP2 CR89 Y1042W V1047D R1088D (WDWD), LRP2 CR89Y1042W V1047D (WDWR), LRP2 CR89Y1042W R1088D (WVWD). Binding to both RAP d3 and MegaRAP1 d3 were measured for each LRP2 CR89 mutant by solid-phase assay. […] The A′ position in LRP2 CR89 is a tryptophan, the canonical residue for wild-type RAP d3 binding, and was not mutated in our studies. […] We did see a small increase in binding of RAP d3 to the WVWD and WDWD combinations at A, C, A′ and C′.

EC50 (read off the curve) (GFRα-1 [1])	Kd (GFRα-1 [2])	Kd (MegaRAP1 d3)	Binder
~2 ng/mL	~5 ng/mL	–	RAP-GDNF fusion protein (ligand, UniProt P30533 35-353, looked up, Secreted from CHO cells as a disulfide-linked homodimer of about 120 kD) YSREKNQPKPSPKRESGEEFRMEKLNQLWEKAQRLHLPPVRLAELHADLKIQERDELAWKKLKLDGLDEDGEKEARLIRNLNVILAKYGLDGKKDARQVTSNSLSGTQEDGLDDPRLEKLWHKAKTSGKFSGEELDKLWREFLHHKEKVHEYNVLLETLSRTEEIHENVISPSDLSDIKGSVLHSRHTELKEKLRSINQGLDRLRRVSHQGYSTEAEFEEPRVIDLWDLAQSANLTDKELEAFREELKHFEAKIEKHNHYQKQLEIAHEKLRHAESVGDGERVSRSREKHALLEGRTKELGYTVKKHLQDLSGRISRARSPDKQMAVLPRRERNRQAAAANPENSRGKGRRGQRGKNRGCVLTAIHLNVTDLGLGYETKEELIFRYCSGSCDAAETTYDKILKNLSRNRRLVSDKVGQACCRPIAFDDDLSFLDDNLVYHILRKHSAKRCGCI
–	–	78 nM	LRP2 CR89 R1088D (receptor, also called YVWD; not shown: N-terminal hexahistidine and S-peptide tag stretch of pET30(+)a) not shown
